Experimental findings from patent US20260258124A1 (CIMEIO THERAPEUTICS, published 2026) are described below.

Assay [1] deals with T1, CD117 on wild-type cells (TF-1 cells, HSPCs, HSCs) (human, UniProt P10721 26-976). Briefly: cell-based or functional assay.
Assay [2] addresses T1, CD117 on wild-type cells (TF-1 cells, …). The assay is described as follows: cell-based or functional assay. The source holds these as a separate data set.
Assay [3] has the same target. Briefly: flow cytometry on TF-1 wild-type cells, Fc receptors blocked, goat anti-human IgG Alexa Fluor 488 as secondary antibody. On the procedure:
Binding of the antibodies of the present disclosure to CD117 on TF-1 cells was measured. TF-1 wild-type cells were seeded at a concentration of 100,000 cells/well. A Fc receptor blocking was performed using 25 μL TruStain FcX (BioLegend) for 15 min. Next cells are treated with various concentrations of the antibodies to be tested (0.0001-5 μg/ml). After additional 30 min cells were washed, then a secondary antibody was added to the cells (IgG (H+L) Cross-Adsorbed Goat anti-Human, Alexa Fluor® 488). After 30 min and two additional wash steps a live dead staining via 7AAD (7-aminoactinomycin D) was performed using 0.5 μg/mL 7AAD for 10 min before analyzing cells in a flow cytometer.

In assay [4] the target is T2, human recombinant CD117 (c-Kit) from Sino Biological (Catalog No. 11996-H08H) (human, UniProt P10721 26-524).
T2 construct: also called soluble antigen
T2 sequence (P10721 26-524 limits assumed): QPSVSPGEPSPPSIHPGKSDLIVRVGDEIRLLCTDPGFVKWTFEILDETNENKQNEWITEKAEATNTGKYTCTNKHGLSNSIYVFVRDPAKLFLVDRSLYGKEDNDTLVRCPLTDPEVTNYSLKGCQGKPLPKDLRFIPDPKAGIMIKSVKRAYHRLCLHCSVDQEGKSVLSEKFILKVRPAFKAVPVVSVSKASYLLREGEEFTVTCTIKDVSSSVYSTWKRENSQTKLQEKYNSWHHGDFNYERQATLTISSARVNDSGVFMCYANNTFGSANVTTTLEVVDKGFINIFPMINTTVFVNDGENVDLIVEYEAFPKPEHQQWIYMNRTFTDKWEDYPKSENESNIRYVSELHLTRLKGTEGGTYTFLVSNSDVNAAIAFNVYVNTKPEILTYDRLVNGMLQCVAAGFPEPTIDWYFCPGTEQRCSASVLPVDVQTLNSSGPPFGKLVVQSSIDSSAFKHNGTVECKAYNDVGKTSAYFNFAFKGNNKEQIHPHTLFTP
The assay is described as follows: BLI Octet, set-up as in Example 2. As to the method: (§1) In the main experiment kinetic assays were performed by first capturing IgG using anti-human Fc biosensors. The mAb capture biosensors were then submerged in wells containing different concentrations of antigen (association stage) followed by a dissociation step in running buffer. To allow for double reference correction, IgG-captured sensors were dipped into wells containing only buffer and blank sensors were also dipped into wells containing the antigen. This referencing provided a means of compensating for both the natural dissociation of the capture IgG and non-specific binding of the antigen to the sensor surface. Steps were performed at 25° C. at a constant shaking of 1000 rpm. New sensors were used for each sample. Dissociation rate constants (Kd) were calculated using the ForteBio Data Analysis software. All consumables used were those recommended by ForteBio.
(§2) All samples were diluted in freshly prepared running buffer. Antibody variants were immobilized onto the surface of a series of biosensors using the capture methods described. Antigen was passed over the surface to generate a binding response. Binding data for the IgG:antigen interactions were collected at 25° C. on the biosensors. A dilution series of the antigen was used in the association step, in order to fit results globally and get the best values for ka, kd, and KD. The response data for the binding of antigen to the surface immobilized IgG were fitted to a 1:1 binding model. HC0 LC0 refers to murine SR-1.

Assay [5] has as its target T2, human recombinant CD117 (c-Kit) from …. Briefly: BLI Octet, IgG on anti-human Fc sensor, soluble CD117, 1:1 fit. On the procedure:
IgG antibodies were immobilized on biosensors using suitable capture surfaces and binding of soluble antigen to immobilized antibodies was monitored by BLI (Octet). The resulting sensorgrams were analyzed using the supplied software (Fortebio). As antigen human recombinant CD117 (c-Kit) from Sino Biological was used (Catalog No. 11996-H08H, Lot #LC14SE0812). As a pre-experiment a series of experiments was performed to optimize assay parameters. The following parameters were selected:
as §1, §2

Bounds are passed on as bounds.

T1 sequence (P10721 26-976 limits assumed): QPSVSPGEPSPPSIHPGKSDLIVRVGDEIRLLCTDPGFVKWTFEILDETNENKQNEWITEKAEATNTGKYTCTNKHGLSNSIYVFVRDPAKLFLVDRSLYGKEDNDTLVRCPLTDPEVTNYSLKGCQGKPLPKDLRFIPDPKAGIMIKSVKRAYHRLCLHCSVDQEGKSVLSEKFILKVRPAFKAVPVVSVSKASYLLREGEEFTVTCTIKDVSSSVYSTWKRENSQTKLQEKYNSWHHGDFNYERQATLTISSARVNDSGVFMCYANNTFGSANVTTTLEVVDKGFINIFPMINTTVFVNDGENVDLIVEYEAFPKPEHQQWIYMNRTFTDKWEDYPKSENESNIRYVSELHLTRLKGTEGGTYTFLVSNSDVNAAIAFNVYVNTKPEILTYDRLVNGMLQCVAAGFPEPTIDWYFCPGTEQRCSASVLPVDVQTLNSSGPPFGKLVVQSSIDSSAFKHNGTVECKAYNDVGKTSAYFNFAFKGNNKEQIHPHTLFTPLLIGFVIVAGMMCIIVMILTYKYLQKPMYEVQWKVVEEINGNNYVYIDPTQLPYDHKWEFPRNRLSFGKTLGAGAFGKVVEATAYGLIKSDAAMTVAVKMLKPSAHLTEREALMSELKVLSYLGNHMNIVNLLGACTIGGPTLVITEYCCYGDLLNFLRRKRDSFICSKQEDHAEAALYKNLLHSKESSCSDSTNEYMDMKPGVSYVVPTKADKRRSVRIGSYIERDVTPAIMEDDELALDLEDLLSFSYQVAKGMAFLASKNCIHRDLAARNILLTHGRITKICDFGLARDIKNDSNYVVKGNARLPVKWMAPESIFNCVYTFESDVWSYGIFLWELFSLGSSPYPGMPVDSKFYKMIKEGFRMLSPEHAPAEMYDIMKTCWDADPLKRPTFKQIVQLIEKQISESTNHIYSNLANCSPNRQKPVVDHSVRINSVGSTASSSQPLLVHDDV

B1: NegCtrl (antibody, V domains shown)
VH: QVQLQQSGPGLVKPSQTLSLTCAISGDSVSSNSAAWSWIRQSPGRGLEWLGRIYYRSKWYNDYAVSVKSRITINPDTSKNQFSLQLNSVTPEDTAVYYCARLDHRYHEDTVYPGMDVWGQGTLVTVSS
VL: DIELTQPPSVSVAPGQTARISCSGDNLPAYTVTWYQQKPGQAPVLVIYDDSDRPSGIPERFSGSNSGNTATLTISGTQAEDEADYYCASWDPSSGVVFGGGTKLTVL
notes: also called NegCtrl antibody (anti-chicken lysozyme); NegCtrt
Take B1: in assay [1], the “IC50, inhibition of SCF-dependent proliferation of TF-1 cells (CellTiter-Glo), Average” value (“IC50, inhibition … Average” for short) was above 0.5 µg/mL; the “IC50, inhibition of SCF-dependent proliferation of TF-1 cells (CellTiter-Glo), Experiment #1” value (from here on “IC50, inhibition … Experiment #1”) was above 0.5 µg/mL; the “IC50, inhibition of SCF-dependent proliferation of TF-1 cells (CellTiter-Glo), Experiment #2” value (“IC50, inhibition … Experiment #2” below) is above 0.5 µg/mL. In addition, the “IC50, inhibition of SCF-dependent proliferation of CD34-positive HSPCs (CellTiter-Glo)” value in assay [2] is above 10 µg/mL. Moreover, the binding result in assay [3] was “no binding (tested: 5 ug/ml)”.

B2: FSI-174 (antibody, human IgG1, V domains shown)
VH: QVQLVQSGAEVKKPGASVKVSCKASGYTFTSYNMHWVRQAPGQGLEWMGVIYSGNGDTSYAQKFQGRVTITADKSTSTAYMELSSLRSEDTAVYYCARERDTRFGNWGQGTLVTVSS
VL: DIVMTQSPLSLPVTPGEPASISCRASESVDIYGQSFMHWYLQKPGQSPQLLIYLASNLESGVPDRFSGSGSGTDFTLKISRVEAEDVGVYYCQQNNEDPYTFGGGTKVEIK
On to B2, for which, in assay [1], the “IC50, inhibition … Average” value is 0.0473 µg/mL; the “IC50, inhibition … Experiment #1” value is 0.0387 µg/mL; the “IC50, inhibition … Experiment #2” value worked out at 0.056 µg/mL. Moreover, in assay [2], the “IC50, inhibition of SCF-dependent proliferation of CD34-positive HSPCs (CellTiter-Glo)” value was determined as 0.0253 µg/mL.

B3: Dufour (antibody, V domains shown)
VH: QVQLVQSGAEVKKPGASVKVSCKASGYTFTSYNMHWVRQAPGQGLEWMGVIYSGNGDTSYNQKFKGRVTMTTDTSTSTAYMELRSLTSDDTAVYYCARERDTRFGNWGQGTLVTVSA
VL: EIVLTQSPSSLSASVGDRVTITCRASESVDIYGNSFMHWYQQKPGKAPKLLIYLASNLESGVPSRFSGSGSGTDFTLTISSLQPEDFATYYCQQNNEDPYTFGQGTKLEIK
notes: IgG; also called VH1/VL1; HC1 LC1
On to B3, for which, in assay [1], the “IC50, inhibition … Average” value amounted to 0.22 µg/mL; the “IC50, inhibition … Experiment #1” value amounted to 0.12 µg/mL; the “IC50, inhibition … Experiment #2” value came out at 0.321 µg/mL. Also, the “IC50, inhibition of SCF-dependent proliferation of CD34-positive HSPCs (CellTiter-Glo)” value in assay [2] worked out at 0.0949 µg/mL. Moreover, the Kd in assay [4] is 400 pM. Besides, in assay [5], the Kd was determined as 790 pM, the koff is 0.000397 s⁻¹ and the kon stood at 503000 M⁻¹ s⁻¹.

B4: AMG191 (antibody, human IgG1, V domains shown)
VH: QVQLVQSGAEVKKPGASVKVSCKASGYTFTSYNMHWVRQAPGQGLEWMGVIYSGNGDTSYNQKFKGRVTITADKSTSTAYMELSSLRSEDTAVYYCARERDTRFGNWGQGTLVTVSS
VL: DIVMTQSPDSLAVSLGERATINCRASESVDIYGNSFMHWYQQKPGQPPKLLIYLASNLESGVPDRFSGSGSGTDFTLTISSLQAEDVAVYYCQQNNEDPYTFGGGTKVEIKR
For the molecule B4, in assay [1], the “IC50, inhibition … Average” value was found to be 0.208 µg/mL; the “IC50, inhibition … Experiment #1” value worked out at 0.093 µg/mL; the “IC50, inhibition … Experiment #2” value worked out at 0.323 µg/mL. Moreover, in assay [2], the “IC50, inhibition of SCF-dependent proliferation of CD34-positive HSPCs (CellTiter-Glo)” value was 0.0954 µg/mL.

B5: Weissmies (antibody, V domains shown)
VH: QVQLVQSGAEVKKPGASVKVSCKASGYTFTSYNMHWVRQAPGQGLEWMGVIYSGSGDTSYNQKFKGRVTMTTDTSTSTAYMELRSLTSDDTAVYYCARERDTRFGNWGQGTLVTVSA
VL: EIVLTQSPSSLSASVGDRVTITCRASESVDIYGYSFMHWYQQKPGKAPKLLIYLASNLESGVPSRFSGSGSGTDFTLTISSLQPEDFATYYCQQNNEEPYTFGQGTKLEIKR
notes: IgG; also called VH1.2/VL1.16
As for B5, the Kd in assay [4] worked out at 370 pM.

B6: Weisshorn (antibody, V domains shown)
VH: QVQLVQSGAEVKKPGASVKVSCKASGYTFTSYNMHWVRQAPGQGLEWMGVIYSGNGDTSYNQKFKGRVTMTTDTSTSTAYMELRSLTSDDTAVYYCARERDTRFGNWGQGTLVTVSA
VL: EIVLTQSPSSLSASVGDRVTITCRASESVDIYGQSFMHWYQQKPGKAPKLLIYLASNLESGVPSRFSGSGSGTDFTLTISSLQPEDFATYYCQQNNEDPYTFGQGTKLEIKR
notes: IgG; also called VH1/VL1.2; VH1/LC1.2
For B6, in assay [4], the Kd was 300 pM.

B7: Zinalrithorn (antibody, V domains shown)
VH: QVQLVQSGAEVKKPGASVKVSCKASGYTFTSYNMHWVRQAPGQGLEWMGVIYSGNGDTSYNQKFKGRVTMTTDTSTSTAYMELRSLTSDDTAVYYCARERDTRFGNWGQGTLVTVSA
VL: EIVLTQSPSSLSASVGDRVTITCRASESVDIYGNSFMHWYQQKPGKAPKLLIYLASNLESGVPSRFSGSGSGTDFTLTISSLQPEDFATYYCQQHNEDPYTFGQGTKLEIKR
notes: IgG; also called VH1/VL1.12
As for B7, in assay [4], the Kd was found to be 1300 pM.

B8: Piz Zupo (antibody, V domains shown)
VH: QVQLVQSGAEVKKPGASVKVSCKASGYTFTSYNMHWVRQAPGQGLEWMGVIYSGNGDTSYNQKFKGRVTMTTDTSTSTAYMELRSLTSDDTAVYYCARERDTRFGNWGQGTLVTVSA
VL: EIVLTQSPSSLSASVGDRVTITCRASESVDIYGQSFMHWYQQKPGKAPKLLIYLASNLESGVPSRFSGSGSGTDFTLTISSLQPEDFATYYCQQNKEEPYTFGQGTKLEIKR
notes: IgG; also called VH1/VL1.25
B8: in assay [1], the “IC50, inhibition … Average” value was above 0.5 µg/mL; the “IC50, inhibition … Experiment #1” value was above 0.5 µg/mL; the “IC50, inhibition … Experiment #2” value is above 0.5 µg/mL. The “IC50, inhibition of SCF-dependent proliferation of CD34-positive HSPCs (CellTiter-Glo)” value in assay [2] is 0.114 µg/mL. In addition, the Kd in assay [4] worked out at 1100 pM.

B9: Matterhorn (antibody, V domains shown)
VH: QVQLVQSGAEVKKPGASVKVSCKASGYTFTSYNMHWVRQAPGQGLEWMGVIYSGNGDTSYNQKFKGRVTMTTDTSTSTAYMELRSLTSDDTAVYYCARERDTRFGNWGQGTLVTVSA
VL: EIVLTQSPSSLSASVGDRVTITCRASESVDIYGSSFMHWYQQKPGKAPKLLIYLASNLESGVPSRFSGSGSGTDFTLTISSLQPEDFATYYCQQNNEDPYTFGQGTKLEIKR
notes: IgG; also called VH1/VL1.4; VH1/LC1.4
On to B9, for which, in assay [1], the “IC50, inhibition … Average” value is 0.116 µg/mL; the “IC50, inhibition … Experiment #1” value was determined as 0.0648 µg/mL; the “IC50, inhibition … Experiment #2” value stood at 0.168 µg/mL. In addition, the “IC50, inhibition of SCF-dependent proliferation of CD34-positive HSPCs (CellTiter-Glo)” value in assay [2] amounted to 0.0716 µg/mL. Besides, the Kd in assay [4] turned out to be 500 pM.

B10: Bellavista (antibody, V domains shown)
VH: QVQLVQSGAEVKKPGASVKVSCKASGYTFTSYNMHWVRQAPGQGLEWMGVIYSGQGDTSYNQKFKGRVTMTTDTSTSTAYMELRSLTSDDTAVYYCARERDTRFGNWGQGTLVTVSA
VL: EIVLTQSPSSLSASVGDRVTITCRASESVDIYGESFMHWYQQKPGKAPKLLIYLASNLESGVPSRFSGSGSGTDFTLTISSLQPEDFATYYCQQNREEPYTFGQGTKLEIKR
notes: IgG; also called VH1.4/VL1.29
For the molecule B10, in assay [1], the “IC50, inhibition … Average” value turned out to be 0.157 µg/mL; the “IC50, inhibition … Experiment #1” value was determined as 0.103 µg/mL; the “IC50, inhibition … Experiment #2” value stood at 0.212 µg/mL. For the same molecule, the “IC50, inhibition of SCF-dependent proliferation of CD34-positive HSPCs (CellTiter-Glo)” value in assay [2] was determined as 0.096 µg/mL. In addition, the Kd in assay [4] turned out to be 1300 pM.

B11: Eiger (antibody, V domains shown)
VH: QVQLVQSGAEVKKPGASVKVSCKASGYTFTSYNMHWVRQAPGQGLEWMGVIYSGNGDTSYNQKFKGRVTMTTDTSTSTAYMELRSLTSDDTAVYYCARERDTRFGNWGQGTLVTVSA
VL: EIVLTQSPSSLSASVGDRVTITCRASESVDIYGSSFMHWYQQKPGKAPKLLIYLASNLESGVPSRFSGSGSGTDFTLTISSLQPEDFATYYCQQNKEEPYTFGQGTKLEIKR
notes: IgG; also called VH1/VL1.26
Consider B11, for which, in assay [1], the “IC50, inhibition … Average” value was above 0.5 µg/mL; the “IC50, inhibition … Experiment #1” value is above 0.5 µg/mL; the “IC50, inhibition … Experiment #2” value was above 0.5 µg/mL. Further, the “IC50, inhibition of SCF-dependent proliferation of CD34-positive HSPCs (CellTiter-Glo)” value in assay [2] was determined as 0.594 µg/mL. In addition, the Kd in assay [4] was determined as 1600 pM.
